This is an account of results in paper PMC4878091.

For assay [1], the target named is recombinant collagen IV α112 protomer (r-Prot). In words: SEC.
The next assay has as its target PFHR9 NC1 domains. Description: SEC. On the technique in general: In gel filtration, larger molecules generally elute earlier.

By stoichiometry N is commonly meant a count of units in the complex or per binding partner.

Regarding “recombinant collagen IV α112 protomer (r-Prot) (complex)”, the stoichiometry N in assay [1] amounted to 2.

Substance PFHR9 NC1 domains gave a stoichiometry N with PFHR9 NC1 domains of 6.
